This experiment addresses C3d (human), P01024. As to the kind of experiment: SPR; homemade HJEM2 chip, 61 RU C3d amine-coupled; FH flowed (2 μM to 3.9 nM); Biacore T200, 25 °C, HBS-P pH 7.4; 1:1 steady-state model. The note with it: remark: other sources report otherwise.

Chain of C3d (human), P01024 (P01024 1002-1303): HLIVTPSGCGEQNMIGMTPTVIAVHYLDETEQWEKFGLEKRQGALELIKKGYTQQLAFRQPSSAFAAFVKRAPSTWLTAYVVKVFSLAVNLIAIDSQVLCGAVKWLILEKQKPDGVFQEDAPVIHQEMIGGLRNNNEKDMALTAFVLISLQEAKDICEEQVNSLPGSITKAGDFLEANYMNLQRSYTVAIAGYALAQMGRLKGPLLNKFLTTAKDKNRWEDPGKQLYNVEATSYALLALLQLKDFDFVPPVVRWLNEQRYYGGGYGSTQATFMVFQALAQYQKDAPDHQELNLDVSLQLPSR

B1: factor H, P08603 19-1231 (natural protein)
chain: EDCNELPPRRNTEILTGSWSDQTYPEGTQAIYKCRPGYRSLGNVIMVCRKGEWVALNPLRKCQKRPCGHPGDTPFGTFTLTGGNVFEYGVKAVYTCNEGYQLLGEINYRECDTDGWTNDIPICEVVKCLPVTAPENGKIVSSAMEPDREYHFGQAVRFVCNSGYKIEGDEEMHCSDDGFWSKEKPKCVEISCKSPDVINGSPISQKIIYKENERFQYKCNMGYEYSERGDAVCTESGWRPLPSCEEKSCDNPYIPNGDYSPLRIKHRTGDEITYQCRNGFYPATRGNTAKCTSTGWIPAPRCTLKPCDYPDIKHGGLYHENMRRPYFPVAVGKYYSYYCDEHFETPSGSYWDHIHCTQDGWSPAVPCLRKCYFPYLENGYNQNYGRKFVQGKSIDVACHPGYALPKAQTTVTCMENGWSPTPRCIRVKTCSKSSIDIENGFISESQYTYALKEKAKYQCKLGYVTADGETSGSITCGKDGWSAQPTCIKSCDIPVFMNARTKNDFTWFKLNDTLDYECHDGYESNTGSTTGSIVCGYNGWSDLPICYERECELPKIDVHLVPDRKKDQYKVGEVLKFSCKPGFTIVGPNSVQCYHFGLSPDLPICKEQVQSCGPPPELLNGNVKEKTKEEYGHSEVVEYYCNPRFLMKGPNKIQCVDGEWTTLPVCIVEESTCGDIPELEHGWAQLSSPPYYYGDSVEFNCSESFTMIGHRSITCIHGVWTQLPQCVAIDKLKKCKSSNLIILEEHLKNKKEFDHNSNIRYRCRGKEGWIHTVCINGRWDPEVNCSMAQIQLCPPPPQIPNSHNMTTTLNYRDGEKVSVLCQENYLIQEGEEITCKDGRWQSIPLCVEKIPCSQPPQIEHGTINSSRSSQESYAHGTKLSYTCEGGFRISEENETTCYMGKWSSPPQCEGLPCKSPPEISHGVVAHMSDSYQYGEEVTYKCFEGFGIDGPAIAKCLGEKWSHPPSCIKTDCLSLPSFENAIPMGEKKDVYKAGEQVTYTCATYYKMDGASNVTCINSRWTGRPTCRDTSCVNPPTVQNAYIVSRQMSKYPSGERVRYQCRSPYEMFGDEEVMCLNGNWTEPPQCKDSTGKCGPPPPIDNGDITSFPLSVYAPASSVEYQCQNLYQLEGNKRITCRNGQWSEPPKCLHPCVISREIMENYNIALRWTAKQKLYSRTGESVEFVCKRGYRLSSRSHTLRTTCWDGKLEYPTCAKR
The term Kd denotes the equilibrium constant for the complex coming apart. Take B1: the Kd came to 640 nM.
